Results from the supplement of paper PMC6757056.
± gives the standard deviation of the averaged measurements.

B1: library; a variant is named by its letters at N, in order (parent)
chain: GCUGUCACCGGUGCUUGGUACGUUAUAUUCAGCCGGUCUGAUGAGUCUNNNNNNAGACGAAACAGC

Columns and labels:
(6R,S)-folinic acid [1] = variants of: B1; experiment: normalized RNA/DNA level without ligand (relative to sTRSVctl = 100) (log10 (% of sTRSVctl)); HEK293T overexpressing SLC46A1; higher = less ribozyme self-cleavage, higher mRNA level; details: without (6R,S)-folinic acid; ligand present: no
Summary of the method: (§1)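 HEK293T cells were transfected with library plasmids carrying ribozyme switches linked to an mCherry reporter, or an eGFP reporter in some ligand experiments, at 4 µg per well of a 6-well plate, with any ligand added 1 h beforehand. After 72 h, total RNA was extracted with EDTA, reverse-transcribed, amplified, barcoded and sequenced. RNA level was defined as RNA reads over DNA reads, normalized to a spiked-in non-cleaving sequence or to the top-ranked sequences. That value was multiplied by 100 and converted to log10, the top set was 25 sequences, and only sequences with ≥100 DNA reads were retained.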

(6R,S)-folinic acid [2] = variants of: B1; experiment: normalized RNA/DNA level with ligand (relative to sTRSVctl = 100) (log10 (% of sTRSVctl)); HEK293T overexpressing SLC46A1; ligand concentration (+) RNA-Seq: 6 mM; higher = less ribozyme self-cleavage, higher mRNA level; details: with (6R,S)-folinic acid; ligand present: yes
Summary of the method: as §1

Variant | normalized RNA/DNA level without ligand (log10) ((6R,S)-folinic acid [1]) | normalized RNA/DNA level with ligand (log10) ((6R,S)-folinic acid [2])
GCUGCU | 2.04 ± 0.027 | 2.055 ± 0.018
UCUGCU | 2.069 ± 0.0056 | 2.07 ± 0.0045
ACUGCU | 2.0021 ± 0.002 | 2.008 ± 0.015
CCUGGA | 2.046 ± 0.0022 | 2.068 ± 0.0024
GCUGGA | 2.06 ± 0.0022 | 2.07 ± 0.046
ACUGGA | 1.943 ± 0.0043 | 2 ± 0.058
CCUGGC | 2.051 ± 0.013 | 2.05 ± 0.045
GCUGGC | 1.964 ± 0.017 | 1.916 ± 0.0083
UCUGGC | 2.03 ± 0.022 | 2.0358 ± 0.00061
ACUGGC | 2.045 ± 0.016 | 2.005 ± 0.016
CCUGGG | 2.012 ± 0.01 | 2.017 ± 0.0021
GCUGGG | 1.979 ± 0.0048 | 2.01 ± 0.021
CCUGGU | 2.044 ± 0.0037 | 2.088 ± 0.011
UCUGGU | 1.9654 ± 0.0015 | 2.02 ± 0.032
ACUGGU | 1.952 ± 0.016 | 2 ± 0.07
CCUGUA | 2.018 ± 0.012 | 2.04 ± 0.022
GCUGUA | 2.019 ± 0.018 | 2.04 ± 0.033
UCUGUA | 1.961 ± 0.0025 | 2.04 ± 0.026
ACUGUA | 1.9633 ± 7.1e-05 | 2.026 ± 0.014
CCUGUC | 2.022 ± 0.0031 | 2.01 ± 0.041
GCUGUC | 2.0466 ± 0.00088 | 2.02 ± 0.026
UCUGUC | 2.056 ± 0.0093 | 2.07 ± 0.075
ACUGUC | 2.08 ± 0.024 | 2.04 ± 0.059
CCUGUG | 2.0488 ± 0.00073 | 2.03 ± 0.038

Variant | normalized RNA/DNA level without ligand (log10) ((6R,S)-folinic acid [1]) | normalized RNA/DNA level with ligand (log10) ((6R,S)-folinic acid [2])
GCUGUG | 2.03 ± 0.028 | 2.04 ± 0.055
UCUGUG | 1.773 ± 0.0022 | 2 ± 0.049
CCUGUU | 2.02 ± 0.021 | 2.015 ± 0.014
ACUGUU | 2 ± 0.02 | 2.01 ± 0.037
CCUUAA | 2.01 ± 0.0061 | 2.003 ± 0.013
UCUUAA | 1.962 ± 0.011 | 2.002 ± 0.0044
CCUUAC | 2.02 ± 0.027 | 2.056 ± 0.014
UCUUAC | 2.003 ± 0.0077 | 1.998 ± 0.0031
CCUUAG | 1.934 ± 0.015 | 1.96 ± 0.046
GCUUAG | 1.9687 ± 0.00031 | 2.015 ± 0.013
GCUUAU | 1.942 ± 0.015 | 2.003 ± 0.006
UCUUAU | 2 ± 0.028 | 2 ± 0.013
CCUUCA | 2.07 ± 0.021 | 2.04 ± 0.079
UCUUCA | 2.028 ± 0.0079 | 2.04 ± 0.046
ACUUCA | 2.01 ± 0.03 | 2 ± 0.04
CCUUCC | 2.067 ± 0.019 | 2.01 ± 0.024
GCUUCC | 2.029 ± 0.0087 | 2.04 ± 0.034
UCUUCC | 2.026 ± 0.018 | 2.043 ± 0.018
ACUUCC | 2.058 ± 0.009 | 2.0589 ± 0.002
CCUUCG | 2.017 ± 0.019 | 2.045 ± 0.012
GCUUCG | 2.024 ± 0.015 | 2.02 ± 0.025
UCUUCG | 1.91 ± 0.02 | 2.0469 ± 0.0016
ACUUCG | 1.968 ± 0.0047 | 2.02 ± 0.029
CCUUCU | 2.01 ± 0.024 | 2.02 ± 0.041

Variant | normalized RNA/DNA level without ligand (log10) ((6R,S)-folinic acid [1]) | normalized RNA/DNA level with ligand (log10) ((6R,S)-folinic acid [2])
GCUUCU | 2.0037 ± 0.0006 | 2.01 ± 0.048
UCUUCU | 2.064 ± 0.0051 | 2.095 ± 0.011
ACUUCU | 2.031 ± 0.0021 | 1.99 ± 0.059
CCUUGA | 2.017 ± 0.0066 | 2.03 ± 0.027
GCUUGA | 1.999 ± 0.0031 | 2.024 ± 0.018
UCUUGA | 1.987 ± 0.0069 | 2.025 ± 0.006
ACUUGA | 1.9759 ± 0.0013 | 2.03 ± 0.041
CCUUGC | 2.004 ± 0.0087 | 2.05 ± 0.039
GCUUGC | 2.052 ± 0.01 | 2.01 ± 0.022
ACUUGC | 2.036 ± 0.0029 | 2.03 ± 0.03
CCUUGG | 2.047 ± 0.016 | 2.01 ± 0.022
GCUUGG | 1.932 ± 0.015 | 2.02 ± 0.028
CCUUGU | 2.01 ± 0.04 | 2.005 ± 0.013
GCUUGU | 2.004 ± 0.017 | 2.04 ± 0.058
UCUUGU | 1.976 ± 0.014 | 2.02 ± 0.051
ACUUGU | 2.062 ± 0.011 | 2.064 ± 0.013
UCUUUA | 2.001 ± 0.0056 | 2 ± 0.015
CCUUUC | 2.062 ± 0.0044 | 2.01 ± 0.053
GCUUUC | 2.0144 ± 0.0002 | 2.01 ± 0.029
UCUUUC | 2.017 ± 0.0074 | 1.996 ± 0.0066
ACUUUC | 2.041 ± 0.0054 | 2.05 ± 0.038
CCUUUG | 2.039 ± 0.017 | 2.01 ± 0.067
GCUUUG | 1.995 ± 0.015 | 2.02 ± 0.053
UCUUUG | 1.81 ± 0.031 | 1.952 ± 0.019

Variant | normalized RNA/DNA level without ligand (log10) ((6R,S)-folinic acid [1]) | normalized RNA/DNA level with ligand (log10) ((6R,S)-folinic acid [2])
ACUUUG | 1.94 ± 0.043 | 2.001 ± 0.015
CCUUUU | 2.031 ± 0.0026 | 2 ± 0.027
GCUUUU | 2.01 ± 0.047 | 2.02 ± 0.035
ACUUUU | 2.037 ± 0.012 | 2 ± 0.038
AGAAAA | 1.984 ± 0.0076 | 2 ± 0.034
CGAAAC | 1.985 ± 0.0043 | 1.99 ± 0.04
AGAAAC | 2.0013 ± 0.00088 | 2.01 ± 0.026
AGAAAG | 1.901 ± 0.0062 | 2.01 ± 0.022
CGAAAU | 1.942 ± 0.0046 | 1.967 ± 0.013
GGAAAU | 1.98 ± 0.025 | 2.04 ± 0.027
AGAAAU | 2.026 ± 0.0034 | 2.01 ± 0.044
GGAACA | 2.0061 ± 0.00047 | 2.02 ± 0.043
UGAACA | 1.9795 ± 0.00092 | 2.01 ± 0.037
AGAACA | 2.007 ± 0.0027 | 2.02 ± 0.045
GGAACC | 2.036 ± 0.01 | 2.04 ± 0.06
UGAACC | 2.011 ± 0.0035 | 2 ± 0.031
AGAACC | 2.02 ± 0.0077 | 2.01 ± 0.049
CGAACG | 2.0268 ± 0.0006 | 2.024 ± 0.0057
GGAACG | 2 ± 0.027 | 2.03 ± 0.032
AGAACG | 1.954 ± 0.0051 | 2.018 ± 0.016
CGAACU | 2 ± 0.023 | 2 ± 0.05
GGAACU | 2.035 ± 0.01 | 2.029 ± 0.016
AGAACU | 2.036 ± 0.0042 | 2.075 ± 0.0036
CGAAGA | 1.986 ± 0.0023 | 2.01 ± 0.049

Variant | normalized RNA/DNA level without ligand (log10) ((6R,S)-folinic acid [1]) | normalized RNA/DNA level with ligand (log10) ((6R,S)-folinic acid [2])
AGAAGA | 1.949 ± 0.0067 | 2.02 ± 0.025
CGAAGC | 2.02 ± 0.033 | 2.04 ± 0.042
GGAAGC | 1.9092 ± 0.0019 | 1.99 ± 0.044
UGAAGC | 1.964 ± 0.018 | 2 ± 0.021
AGAAGC | 2.004 ± 0.0023 | 2.049 ± 0.016
CGAAGG | 1.859 ± 0.012 | 1.94 ± 0.022
GGAAGG | 1.95 ± 0.022 | 2.03 ± 0.04
AGAAGG | 1.931 ± 0.019 | 2.01 ± 0.037
CGAAGU | 1.99 ± 0.03 | 2 ± 0.032
GGAAGU | 1.978 ± 0.0031 | 2.01 ± 0.032
AGAAGU | 1.938 ± 0.007 | 1.9746 ± 0.00065
GGAAUA | 2.022 ± 0.0049 | 2.04 ± 0.04
UGAAUA | 1.965 ± 0.0093 | 2.03 ± 0.026
AGAAUA | 1.9881 ± 0.00025 | 2.02 ± 0.037
CGAAUC | 2.05 ± 0.019 | 2.03 ± 0.034
UGAAUC | 2.07 ± 0.021 | 2.06 ± 0.047
AGAAUC | 2.0639 ± 0.001 | 2.05 ± 0.033
CGAAUG | 2.0224 ± 0.0012 | 2.034 ± 0.012
AGAAUG | 1.893 ± 0.0045 | 2 ± 0.039
CGAAUU | 2 ± 0.026 | 2.01 ± 0.037
